Experimental data as given in patent publication US20230212549A1, “COMPOUNDS COMPRISING A […] LIGAND AND USE THEREOF” (priority 2021, published 2023).
Bridge positions count the residues as written; N and C are the ends.

T1: delta (DOP) (h) (human), P41143
T1 chain: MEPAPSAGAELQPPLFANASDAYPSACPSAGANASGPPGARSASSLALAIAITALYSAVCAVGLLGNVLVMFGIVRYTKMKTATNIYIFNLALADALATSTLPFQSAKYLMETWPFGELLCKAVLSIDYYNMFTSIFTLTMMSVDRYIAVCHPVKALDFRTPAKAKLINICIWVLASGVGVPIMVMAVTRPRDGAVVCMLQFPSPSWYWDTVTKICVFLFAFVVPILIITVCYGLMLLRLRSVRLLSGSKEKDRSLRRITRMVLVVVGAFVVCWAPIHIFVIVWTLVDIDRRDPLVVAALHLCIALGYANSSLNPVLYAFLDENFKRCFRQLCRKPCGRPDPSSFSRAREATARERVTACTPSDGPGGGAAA

T2: AR (h) (human), P10275
T2 chain: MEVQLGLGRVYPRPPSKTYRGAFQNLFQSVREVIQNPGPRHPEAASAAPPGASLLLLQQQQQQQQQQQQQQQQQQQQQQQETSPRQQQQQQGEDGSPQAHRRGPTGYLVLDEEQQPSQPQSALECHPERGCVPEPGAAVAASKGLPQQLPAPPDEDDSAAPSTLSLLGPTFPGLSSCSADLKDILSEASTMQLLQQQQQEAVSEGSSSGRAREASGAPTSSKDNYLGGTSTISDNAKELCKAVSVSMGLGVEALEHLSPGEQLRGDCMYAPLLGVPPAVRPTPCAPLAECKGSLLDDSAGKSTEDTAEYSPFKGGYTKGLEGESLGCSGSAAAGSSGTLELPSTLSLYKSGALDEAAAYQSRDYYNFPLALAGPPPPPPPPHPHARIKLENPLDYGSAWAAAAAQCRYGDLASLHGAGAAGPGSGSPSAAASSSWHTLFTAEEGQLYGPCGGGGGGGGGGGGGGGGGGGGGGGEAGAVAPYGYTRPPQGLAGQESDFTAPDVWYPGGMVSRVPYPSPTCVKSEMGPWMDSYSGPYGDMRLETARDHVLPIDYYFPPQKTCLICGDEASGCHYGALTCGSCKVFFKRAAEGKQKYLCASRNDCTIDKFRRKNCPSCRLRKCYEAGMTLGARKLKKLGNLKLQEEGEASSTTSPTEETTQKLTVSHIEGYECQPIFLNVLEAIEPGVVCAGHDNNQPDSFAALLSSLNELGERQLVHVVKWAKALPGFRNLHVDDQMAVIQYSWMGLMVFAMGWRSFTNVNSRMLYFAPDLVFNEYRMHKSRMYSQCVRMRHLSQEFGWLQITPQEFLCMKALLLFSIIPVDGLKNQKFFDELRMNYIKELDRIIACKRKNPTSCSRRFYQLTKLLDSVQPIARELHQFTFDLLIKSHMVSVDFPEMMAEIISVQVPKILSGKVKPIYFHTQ

T3: ETA (h) (human), P25101
T3 chain: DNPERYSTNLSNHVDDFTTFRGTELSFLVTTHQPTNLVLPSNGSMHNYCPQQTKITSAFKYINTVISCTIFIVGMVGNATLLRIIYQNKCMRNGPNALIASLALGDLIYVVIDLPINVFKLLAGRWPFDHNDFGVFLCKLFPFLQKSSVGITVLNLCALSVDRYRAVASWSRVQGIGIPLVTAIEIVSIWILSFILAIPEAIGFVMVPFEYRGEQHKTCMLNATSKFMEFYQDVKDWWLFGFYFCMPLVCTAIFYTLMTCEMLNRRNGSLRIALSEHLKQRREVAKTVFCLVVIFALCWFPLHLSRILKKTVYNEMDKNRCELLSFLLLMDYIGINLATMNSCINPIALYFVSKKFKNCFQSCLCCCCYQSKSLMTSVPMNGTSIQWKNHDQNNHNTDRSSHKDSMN

T4: Potassium Channel hERG (human) (human), Q12809
T4 chain: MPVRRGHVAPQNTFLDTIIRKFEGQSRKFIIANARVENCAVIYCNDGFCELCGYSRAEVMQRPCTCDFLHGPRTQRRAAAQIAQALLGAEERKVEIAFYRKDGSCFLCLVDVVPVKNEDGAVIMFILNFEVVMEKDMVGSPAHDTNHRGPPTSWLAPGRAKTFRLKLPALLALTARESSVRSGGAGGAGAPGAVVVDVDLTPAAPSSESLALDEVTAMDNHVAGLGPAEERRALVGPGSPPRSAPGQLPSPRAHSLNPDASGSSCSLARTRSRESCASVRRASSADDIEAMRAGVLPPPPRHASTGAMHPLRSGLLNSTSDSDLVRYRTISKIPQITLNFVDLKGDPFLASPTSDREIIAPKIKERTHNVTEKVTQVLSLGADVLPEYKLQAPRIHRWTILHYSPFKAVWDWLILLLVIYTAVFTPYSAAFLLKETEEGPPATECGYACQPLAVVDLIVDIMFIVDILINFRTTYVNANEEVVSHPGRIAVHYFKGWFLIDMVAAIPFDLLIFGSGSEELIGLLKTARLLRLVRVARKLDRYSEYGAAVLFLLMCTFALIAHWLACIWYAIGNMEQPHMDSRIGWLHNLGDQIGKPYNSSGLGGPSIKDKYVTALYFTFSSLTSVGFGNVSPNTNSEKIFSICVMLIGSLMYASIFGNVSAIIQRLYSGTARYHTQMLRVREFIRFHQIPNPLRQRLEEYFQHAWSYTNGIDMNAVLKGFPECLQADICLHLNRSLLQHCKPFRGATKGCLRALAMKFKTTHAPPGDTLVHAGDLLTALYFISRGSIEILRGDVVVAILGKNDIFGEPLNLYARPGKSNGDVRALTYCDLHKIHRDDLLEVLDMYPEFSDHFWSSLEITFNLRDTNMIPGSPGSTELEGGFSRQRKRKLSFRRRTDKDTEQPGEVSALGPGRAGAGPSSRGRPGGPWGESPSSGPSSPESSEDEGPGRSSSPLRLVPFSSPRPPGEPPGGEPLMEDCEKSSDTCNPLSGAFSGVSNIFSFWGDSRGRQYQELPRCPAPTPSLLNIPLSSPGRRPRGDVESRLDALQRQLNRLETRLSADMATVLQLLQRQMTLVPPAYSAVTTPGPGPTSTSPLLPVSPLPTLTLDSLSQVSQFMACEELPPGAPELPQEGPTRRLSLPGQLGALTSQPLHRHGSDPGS

B1: Hex-[Cys(tMeBn(DOTA-AET))-Pro-Pro-Thr-Gln-Phe-Cys]-OH (peptide)
peptide: Hex-CPPTQFC-OH
modifications: bridge 1-7; not fully specified (bridges); printed as Hex-[Cys(tMeBn(DOTA-AET))-Pro-Pro-Thr-Gln-Phe-Cys]-OH
B2: Hex-[Cys(tMeBn(DOTA-PP))-Pro-Pro-Thr-Gln-Phe-Cys]-Asp-NH2 (peptide)
peptide: Hex-CPPTQFCD-NH2
modifications: bridge 1-7; not fully specified (bridges); printed as Hex-[Cys(tMeBn(DOTA-PP))-Pro-Pro-Thr-Gln-Phe-Cys]-Asp-NH2

Legend:
Settings in all cases: remark: other sources report otherwise
[1] = molecular target: T1, delta (DOP) (h) (human), P41143; assay: radioligand displacement (agonist radioligand), 10 µM
[2] = substrate: N neuronal alpha 4beta 2 (h) (human), P43681; assay: as above
AR (h) (human), P10275 = molecular target: T2, AR (h) (human), P10275; assay: as above
ETA (h) (human), P25101 = molecular target: T3, ETA (h) (human), P25101; assay: as above
[3] = molecular target: T4, Potassium Channel hERG (human) (human), …; assay: radioligand displacement ([3H] Dofetilide), 10 µM

Sequence of N neuronal alpha 4beta 2 (h) (human), P43681 (P43681 27-627, chain 1 of 2): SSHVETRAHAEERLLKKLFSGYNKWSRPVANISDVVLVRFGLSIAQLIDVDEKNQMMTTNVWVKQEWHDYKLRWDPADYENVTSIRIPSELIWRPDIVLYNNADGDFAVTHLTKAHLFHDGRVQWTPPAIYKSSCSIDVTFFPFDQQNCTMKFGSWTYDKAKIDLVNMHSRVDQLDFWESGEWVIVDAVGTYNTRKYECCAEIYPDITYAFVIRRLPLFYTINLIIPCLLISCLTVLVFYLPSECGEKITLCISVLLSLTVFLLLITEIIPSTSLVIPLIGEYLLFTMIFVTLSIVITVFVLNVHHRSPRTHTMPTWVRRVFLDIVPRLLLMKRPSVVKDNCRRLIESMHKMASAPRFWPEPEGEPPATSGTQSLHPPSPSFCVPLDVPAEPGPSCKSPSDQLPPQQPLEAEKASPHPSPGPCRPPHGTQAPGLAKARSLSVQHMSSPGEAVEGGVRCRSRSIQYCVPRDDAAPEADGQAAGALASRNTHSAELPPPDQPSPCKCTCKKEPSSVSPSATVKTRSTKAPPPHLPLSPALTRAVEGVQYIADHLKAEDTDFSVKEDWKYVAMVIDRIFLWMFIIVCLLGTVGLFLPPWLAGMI
Sequence of N neuronal alpha 4beta 2 (h) (human), P43681 (P17787 26-502, chain 2 of 2, further chain): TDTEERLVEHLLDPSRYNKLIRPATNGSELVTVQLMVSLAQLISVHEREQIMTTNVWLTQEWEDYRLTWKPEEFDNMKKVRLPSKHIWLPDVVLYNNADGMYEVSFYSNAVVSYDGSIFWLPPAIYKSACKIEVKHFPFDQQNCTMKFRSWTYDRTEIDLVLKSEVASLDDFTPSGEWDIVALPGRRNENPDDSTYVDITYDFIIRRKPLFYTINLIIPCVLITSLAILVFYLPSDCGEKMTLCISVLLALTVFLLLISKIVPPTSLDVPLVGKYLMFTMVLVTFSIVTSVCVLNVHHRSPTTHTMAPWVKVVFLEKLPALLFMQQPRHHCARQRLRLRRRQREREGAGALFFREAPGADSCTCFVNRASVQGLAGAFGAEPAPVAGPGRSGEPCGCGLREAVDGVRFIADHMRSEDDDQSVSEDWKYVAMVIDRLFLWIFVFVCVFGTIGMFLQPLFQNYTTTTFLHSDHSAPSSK

Row | Binder | % Inhibition of Specific Binding [1] [%] | % Inhibition of Specific Binding [2] [%] | % Inhibition of Specific Binding (AR (h) (human), P10275) [%] | % Inhibition of Specific Binding (ETA (h) (human), P25101) [%] | % Inhibition of Specific Binding [3] [%]
1 | B1 | 1 | -2 | -5 | 6 | 6
2 | B2 | 0 | -8 | 3 | -18 | 2
